{
  "source": "patent US20220143024A1",
  "about": "“METHODS OF USING IMIPRIDONES” (Board of Regents, The University of Texas System, priority 2019, published 2022)",
  "assay_in_all_cases": "BioID-MS",
  "key": {"[1]": {"target": "FASTKD5 (human) (UniProt Q7L8L6)"}, "[2]": {"target": "DHTKD1 (human) (UniProt Q96HY7)"}, "[3]": {"target": "MTRF1 (human) (UniProt O75570)"}, "[4]": {"target": "K1AA0564 (human) (UniProt A3KMH1)"}, "[5]": {"target": "CLIC4 (human) (UniProt Q9Y696)"}, "[6]": {"target": "NDUFAF3 (human) (UniProt Q9BU61)", "sequence (Q9BU61 whole entry)": "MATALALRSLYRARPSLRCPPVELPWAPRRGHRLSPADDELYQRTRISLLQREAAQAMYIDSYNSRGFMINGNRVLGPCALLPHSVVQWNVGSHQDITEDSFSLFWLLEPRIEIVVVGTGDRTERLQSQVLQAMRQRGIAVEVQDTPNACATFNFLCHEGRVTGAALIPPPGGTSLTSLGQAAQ"}, "[7]": {"target": "MTHFD2 (human) (UniProt P13995)"}, "[8]": {"target": "NDUFA12 (human) (UniProt Q9UI09)"}, "[9]": {"target": "MTIF2 (human) (UniProt P46199)", "sequence (P46199 30-727 limits assumed)": "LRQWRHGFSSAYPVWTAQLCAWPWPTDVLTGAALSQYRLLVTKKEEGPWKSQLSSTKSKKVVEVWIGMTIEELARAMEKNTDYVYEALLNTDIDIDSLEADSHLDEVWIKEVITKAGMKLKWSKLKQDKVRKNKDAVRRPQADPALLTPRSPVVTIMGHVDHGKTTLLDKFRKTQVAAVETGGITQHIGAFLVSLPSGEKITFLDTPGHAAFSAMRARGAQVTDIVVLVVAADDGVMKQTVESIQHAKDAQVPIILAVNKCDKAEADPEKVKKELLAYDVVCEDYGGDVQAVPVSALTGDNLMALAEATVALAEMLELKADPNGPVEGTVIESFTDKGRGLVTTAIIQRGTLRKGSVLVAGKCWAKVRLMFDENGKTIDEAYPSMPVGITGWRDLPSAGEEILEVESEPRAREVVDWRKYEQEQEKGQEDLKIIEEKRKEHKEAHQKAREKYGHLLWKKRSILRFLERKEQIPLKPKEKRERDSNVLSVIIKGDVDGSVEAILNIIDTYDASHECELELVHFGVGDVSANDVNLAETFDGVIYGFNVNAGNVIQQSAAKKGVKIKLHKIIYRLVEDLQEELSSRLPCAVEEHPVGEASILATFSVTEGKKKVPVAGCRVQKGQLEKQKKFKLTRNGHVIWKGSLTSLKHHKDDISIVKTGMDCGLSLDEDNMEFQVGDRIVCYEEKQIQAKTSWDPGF"}, "[10]": {"target": "MRPL19 (human) (UniProt P49406)"}, "[11]": {"target": "NUDT19 (human) (UniProt A8MXV4)"}, "[12]": {"target": "METTL17 (human) (UniProt Q9H7H0)"}, "[13]": {"target": "ACAD9 (human) (UniProt Q9H845)", "sequence (Q9H845 38-621 limits assumed)": "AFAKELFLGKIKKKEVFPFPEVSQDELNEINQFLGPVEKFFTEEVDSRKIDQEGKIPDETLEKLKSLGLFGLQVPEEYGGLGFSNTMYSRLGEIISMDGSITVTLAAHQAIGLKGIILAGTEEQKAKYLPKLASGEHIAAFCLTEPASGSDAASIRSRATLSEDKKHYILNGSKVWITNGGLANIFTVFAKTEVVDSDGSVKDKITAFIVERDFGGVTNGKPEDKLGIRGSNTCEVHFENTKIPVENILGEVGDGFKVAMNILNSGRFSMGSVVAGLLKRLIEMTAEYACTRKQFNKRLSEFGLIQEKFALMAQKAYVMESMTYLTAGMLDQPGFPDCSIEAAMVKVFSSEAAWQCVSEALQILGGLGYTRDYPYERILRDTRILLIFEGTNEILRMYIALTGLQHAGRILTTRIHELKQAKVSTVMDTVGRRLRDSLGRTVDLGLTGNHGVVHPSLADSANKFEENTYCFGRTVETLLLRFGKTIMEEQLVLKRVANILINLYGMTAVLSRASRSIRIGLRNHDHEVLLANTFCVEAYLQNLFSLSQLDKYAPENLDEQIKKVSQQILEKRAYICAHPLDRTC"}, "[14]": {"target": "GLS (human) (UniProt O94925)", "sequence (O94925 55-669 limits assumed)": "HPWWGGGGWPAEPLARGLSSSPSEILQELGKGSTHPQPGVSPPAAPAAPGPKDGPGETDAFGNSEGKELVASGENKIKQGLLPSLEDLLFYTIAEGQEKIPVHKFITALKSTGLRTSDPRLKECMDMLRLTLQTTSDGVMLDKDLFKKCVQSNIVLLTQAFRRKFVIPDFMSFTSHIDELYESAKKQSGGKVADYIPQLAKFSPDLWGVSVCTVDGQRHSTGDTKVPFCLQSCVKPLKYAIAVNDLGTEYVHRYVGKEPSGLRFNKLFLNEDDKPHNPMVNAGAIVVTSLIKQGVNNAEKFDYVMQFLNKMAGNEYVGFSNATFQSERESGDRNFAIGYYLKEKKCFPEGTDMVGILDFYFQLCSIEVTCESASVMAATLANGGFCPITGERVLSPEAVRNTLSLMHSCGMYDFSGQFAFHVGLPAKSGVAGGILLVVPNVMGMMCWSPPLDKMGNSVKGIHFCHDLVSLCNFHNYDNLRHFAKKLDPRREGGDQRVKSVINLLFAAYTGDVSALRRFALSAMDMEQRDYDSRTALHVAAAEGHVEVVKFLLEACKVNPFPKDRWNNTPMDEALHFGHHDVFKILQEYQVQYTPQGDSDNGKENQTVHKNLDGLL"}, "[15]": {"target": "MRPS15 (human) (UniProt P82914)"}, "[16]": {"target": "BCKDHB (human) (UniProt P21953)"}, "[17]": {"target": "NUDT1 (human) (UniProt P36639)"}, "[18]": {"target": "LETM1 (human) (UniProt O95202)"}, "[19]": {"target": "AFG3L2 (human) (UniProt Q9Y4W6)"}, "[20]": {"target": "TBRG4 (human) (UniProt Q969Z0)"}, "[21]": {"target": "NDUFS7 (human) (UniProt O75251)"}, "[22]": {"target": "NADKD1 (human) (UniProt Q4G0N4)"}, "[23]": {"target": "ECSIT (human) (UniProt Q9BQ95)", "sequence (Q9BQ95 49-431 limits assumed)": "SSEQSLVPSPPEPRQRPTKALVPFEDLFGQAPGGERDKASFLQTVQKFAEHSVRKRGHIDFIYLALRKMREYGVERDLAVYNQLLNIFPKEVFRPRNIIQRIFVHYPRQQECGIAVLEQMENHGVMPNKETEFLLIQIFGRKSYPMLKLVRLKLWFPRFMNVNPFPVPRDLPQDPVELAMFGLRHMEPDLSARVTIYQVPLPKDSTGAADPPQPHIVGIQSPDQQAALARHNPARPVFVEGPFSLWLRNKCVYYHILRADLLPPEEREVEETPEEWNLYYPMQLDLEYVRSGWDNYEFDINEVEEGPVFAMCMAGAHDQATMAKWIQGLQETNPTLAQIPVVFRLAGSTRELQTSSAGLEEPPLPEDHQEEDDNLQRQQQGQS"}, "[24]": {"target": "SDHA (human) (UniProt P31040)"}, "[25]": {"target": "NDUFAF5 (human) (UniProt Q5TEU4)"}, "[26]": {"target": "SLC27A2 (human) (UniProt O14975)"}, "[27]": {"target": "SLIRP (human) (UniProt Q9GZT3)"}, "[28]": {"target": "ACSS1 (human) (UniProt Q9NUB1)"}, "[29]": {"target": "NDUFS8 (human) (UniProt O00217)"}, "[30]": {"target": "BCKDHA (human) (UniProt P12694)", "sequence (P12694 46-445 limits assumed)": "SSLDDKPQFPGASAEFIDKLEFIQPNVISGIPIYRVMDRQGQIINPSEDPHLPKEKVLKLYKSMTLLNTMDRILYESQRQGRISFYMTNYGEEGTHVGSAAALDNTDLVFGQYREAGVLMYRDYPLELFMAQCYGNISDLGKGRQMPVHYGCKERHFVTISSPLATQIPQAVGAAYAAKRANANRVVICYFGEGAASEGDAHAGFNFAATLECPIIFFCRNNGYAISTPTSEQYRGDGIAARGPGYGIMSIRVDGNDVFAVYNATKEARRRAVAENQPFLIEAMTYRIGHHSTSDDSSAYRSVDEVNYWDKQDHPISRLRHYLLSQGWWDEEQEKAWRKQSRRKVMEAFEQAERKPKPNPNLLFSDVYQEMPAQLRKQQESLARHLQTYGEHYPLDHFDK"}, "[31]": {"target": "NMNAT3 (human) (UniProt Q96T66)"}, "[32]": {"target": "IBA57 (human) (UniProt Q5T440)"}, "[33]": {"target": "PDIA3 (human) (UniProt P30101)", "sequence (P30101 25-505 limits assumed)": "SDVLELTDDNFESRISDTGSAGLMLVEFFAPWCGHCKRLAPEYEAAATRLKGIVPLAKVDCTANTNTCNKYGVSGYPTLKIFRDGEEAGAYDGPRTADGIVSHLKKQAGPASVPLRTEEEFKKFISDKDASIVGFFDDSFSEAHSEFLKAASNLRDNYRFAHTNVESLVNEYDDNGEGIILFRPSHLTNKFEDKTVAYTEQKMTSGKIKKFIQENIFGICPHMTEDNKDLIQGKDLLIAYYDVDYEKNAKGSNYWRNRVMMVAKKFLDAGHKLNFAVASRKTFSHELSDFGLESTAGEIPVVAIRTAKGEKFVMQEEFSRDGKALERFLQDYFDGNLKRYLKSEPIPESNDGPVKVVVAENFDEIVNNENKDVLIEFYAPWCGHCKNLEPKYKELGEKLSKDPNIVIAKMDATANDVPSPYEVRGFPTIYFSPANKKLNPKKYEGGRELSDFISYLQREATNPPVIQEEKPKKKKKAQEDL"}, "[34]": {"target": "MRPL14 (human) (UniProt Q6P1L8)"}, "[35]": {"target": "SHMT2 (human) (UniProt P34897)"}, "[36]": {"target": "ABCB7 (human) (UniProt O75027)"}, "[37]": {"target": "POLRMT (human) (UniProt O00411)"}, "[38]": {"target": "TFAM (human) (UniProt Q00059)"}, "[39]": {"target": "ZADH2 (human) (UniProt Q8N4Q0)"}, "[40]": {"target": "MRRF (human) (UniProt Q96E11)"}, "[41]": {"target": "PPA2 (human) (UniProt Q9H2U2)"}, "[42]": {"target": "MPST (human) (UniProt P25325)", "sequence (P25325 2-297 limits assumed)": "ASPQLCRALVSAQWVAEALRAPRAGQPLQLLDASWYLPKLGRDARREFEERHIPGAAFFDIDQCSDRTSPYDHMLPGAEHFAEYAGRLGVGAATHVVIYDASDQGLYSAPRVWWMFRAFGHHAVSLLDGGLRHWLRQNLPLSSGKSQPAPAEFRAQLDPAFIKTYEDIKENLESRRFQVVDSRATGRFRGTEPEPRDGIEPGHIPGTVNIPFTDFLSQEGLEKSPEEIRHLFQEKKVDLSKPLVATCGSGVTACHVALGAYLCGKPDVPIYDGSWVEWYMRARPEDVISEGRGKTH"}, "[43]": {"target": "MRPS16 (human) (UniProt Q9Y3D3)"}, "[44]": {"target": "MRPS6 (human) (UniProt P82932)"}, "[45]": {"target": "TARS2 (human) (UniProt Q9BW92)"}, "[46]": {"target": "RPS15A (human) (UniProt P62244)"}, "[47]": {"target": "CRAT (human) (UniProt P43155)"}, "[48]": {"target": "NDUFS4 (human) (UniProt O43181)"}, "[49]": {"target": "MRPL10 (human) (UniProt Q7Z7H8)"}, "[50]": {"target": "GFM1 (human) (UniProt Q96RP9)"}, "[51]": {"target": "ADCK3 (human) (UniProt Q8NI60)", "sequence (Q8NI60 163-647 limits assumed)": "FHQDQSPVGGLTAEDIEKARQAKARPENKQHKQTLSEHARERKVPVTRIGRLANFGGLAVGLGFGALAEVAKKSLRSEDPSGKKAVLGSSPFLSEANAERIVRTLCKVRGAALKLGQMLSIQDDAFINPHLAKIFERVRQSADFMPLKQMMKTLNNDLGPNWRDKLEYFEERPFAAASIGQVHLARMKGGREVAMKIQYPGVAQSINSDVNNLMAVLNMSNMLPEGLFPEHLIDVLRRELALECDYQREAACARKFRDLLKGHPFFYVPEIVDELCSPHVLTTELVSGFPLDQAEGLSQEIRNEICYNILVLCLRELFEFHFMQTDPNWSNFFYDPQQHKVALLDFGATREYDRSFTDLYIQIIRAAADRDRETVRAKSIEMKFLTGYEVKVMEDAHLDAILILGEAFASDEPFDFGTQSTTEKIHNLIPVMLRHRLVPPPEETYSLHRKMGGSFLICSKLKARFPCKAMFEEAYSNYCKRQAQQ"}, "[52]": {"target": "GUF1 (human) (UniProt Q8N442)"}, "[53]": {"target": "MRPS23 (human) (UniProt Q9Y3D9)"}, "[54]": {"target": "NDUFV3 (human) (UniProt P56181)", "sequence (P56181 35-108 limits assumed)": "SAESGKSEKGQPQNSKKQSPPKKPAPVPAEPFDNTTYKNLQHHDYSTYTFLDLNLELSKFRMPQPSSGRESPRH"}, "[55]": {"target": "ACADM (human) (UniProt P11310)"}, "[56]": {"target": "THEM4 (human) (UniProt Q5T1C6)", "sequence (Q5T1C6 37-240 limits assumed)": "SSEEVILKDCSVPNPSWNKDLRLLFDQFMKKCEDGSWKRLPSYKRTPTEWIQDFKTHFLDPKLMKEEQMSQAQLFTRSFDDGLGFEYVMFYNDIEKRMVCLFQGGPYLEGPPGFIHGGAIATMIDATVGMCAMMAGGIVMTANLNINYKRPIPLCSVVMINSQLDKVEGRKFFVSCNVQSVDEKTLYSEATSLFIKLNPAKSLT"}, "[57]": {"target": "NDUFAF1 (human) (UniProt Q9Y375)"}, "[58]": {"target": "PET112 (human) (UniProt O75879)", "sequence (O75879 31-557 limits assumed)": "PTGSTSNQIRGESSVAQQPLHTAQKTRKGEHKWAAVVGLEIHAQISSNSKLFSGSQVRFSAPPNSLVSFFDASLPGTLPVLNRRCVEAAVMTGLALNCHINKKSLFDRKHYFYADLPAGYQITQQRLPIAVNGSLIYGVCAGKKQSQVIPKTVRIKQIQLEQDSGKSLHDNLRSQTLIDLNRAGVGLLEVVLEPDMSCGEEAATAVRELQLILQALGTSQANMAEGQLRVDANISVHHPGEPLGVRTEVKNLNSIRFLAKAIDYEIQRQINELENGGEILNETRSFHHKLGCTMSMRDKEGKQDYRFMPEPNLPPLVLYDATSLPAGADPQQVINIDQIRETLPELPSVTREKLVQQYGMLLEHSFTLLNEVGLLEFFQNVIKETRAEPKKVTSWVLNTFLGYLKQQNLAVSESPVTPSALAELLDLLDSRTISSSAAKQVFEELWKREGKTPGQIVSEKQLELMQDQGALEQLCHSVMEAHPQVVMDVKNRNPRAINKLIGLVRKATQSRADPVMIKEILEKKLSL"}},
  "data": [
    {"substance": "FlagBirA-ClpP (Y118A) (from UniProt P06709 1-321; Q16740 57-277) (enzyme)", "values": [
      {"measurement": "Log2 Fold change (vs control)", "setting": "[1]", "value": 1.05, "unit": "log2"},
      {"measurement": "Log2 Fold change (vs control)", "setting": "[2]", "value": -0.12, "unit": "log2"},
      {"measurement": "Log2 Fold change (vs control)", "setting": "[3]", "value": -1.44, "unit": "log2"},
      {"measurement": "Log2 Fold change (vs control)", "setting": "[4]", "value": 0.29, "unit": "log2"},
      {"measurement": "Log2 Fold change (vs control)", "setting": "[5]", "value": -2.81, "unit": "log2"},
      {"measurement": "Log2 Fold change (vs control)", "setting": "[6]", "value": 0.46, "unit": "log2"},
      {"measurement": "Log2 Fold change (vs control)", "setting": "[7]", "value": 0.22, "unit": "log2"},
      {"measurement": "Log2 Fold change (vs control)", "setting": "[8]", "value": -1.02, "unit": "log2"},
      {"measurement": "Log2 Fold change (vs control)", "setting": "[9]", "value": 0.3, "unit": "log2"},
      {"measurement": "Log2 Fold change (vs control)", "setting": "[10]", "value": -0.97, "unit": "log2"},
      {"measurement": "Log2 Fold change (vs control)", "setting": "[11]", "value": -0.58, "unit": "log2"},
      {"measurement": "Log2 Fold change (vs control)", "setting": "[12]", "value": -3.58, "unit": "log2"},
      {"measurement": "Log2 Fold change (vs control)", "setting": "[13]", "value": 1.18, "unit": "log2"},
      {"measurement": "Log2 Fold change (vs control)", "setting": "[14]", "value": 0.21, "unit": "log2"},
      {"measurement": "Log2 Fold change (vs control)", "setting": "[15]", "value": -2.32, "unit": "log2"},
      {"measurement": "Log2 Fold change (vs control)", "setting": "[16]", "value": 0.79, "unit": "log2"},
      {"measurement": "Log2 Fold change (vs control)", "setting": "[17]", "value": -3.17, "unit": "log2"},
      {"measurement": "Log2 Fold change (vs control)", "setting": "[18]", "value": 1.06, "unit": "log2"},
      {"measurement": "Log2 Fold change (vs control)", "setting": "[19]", "value": 0.43, "unit": "log2"},
      {"measurement": "Log2 Fold change (vs control)", "setting": "[20]", "value": 0.28, "unit": "log2"},
      {"measurement": "Log2 Fold change (vs control)", "setting": "[21]", "value": -0.08, "unit": "log2"},
      {"measurement": "Log2 Fold change (vs control)", "setting": "[22]", "value": -1.04, "unit": "log2"},
      {"measurement": "Log2 Fold change (vs control)", "setting": "[23]", "value": -1.04, "unit": "log2"},
      {"measurement": "Log2 Fold change (vs control)", "setting": "[24]", "value": 0.34, "unit": "log2"},
      {"measurement": "Log2 Fold change (vs control)", "setting": "[25]", "value": -0.47, "unit": "log2"},
      {"measurement": "Log2 Fold change (vs control)", "setting": "[26]", "value": -3.81, "unit": "log2"},
      {"measurement": "Log2 Fold change (vs control)", "setting": "[27]", "value": 0.25, "unit": "log2"},
      {"measurement": "Log2 Fold change (vs control)", "setting": "[28]", "value": -1.46, "unit": "log2"},
      {"measurement": "Log2 Fold change (vs control)", "setting": "[29]", "value": 0.19, "unit": "log2"},
      {"measurement": "Log2 Fold change (vs control)", "setting": "[30]", "value": 1.68, "unit": "log2"},
      {"measurement": "Log2 Fold change (vs control)", "setting": "[31]", "value": -4, "unit": "log2"},
      {"measurement": "Log2 Fold change (vs control)", "setting": "[32]", "value": 1.65, "unit": "log2"},
      {"measurement": "Log2 Fold change (vs control)", "setting": "[33]", "value": -0.41, "unit": "log2"},
      {"measurement": "Log2 Fold change (vs control)", "setting": "[34]", "value": 0, "unit": "log2"},
      {"measurement": "Log2 Fold change (vs control)", "setting": "[35]", "value": -0.25, "unit": "log2"},
      {"measurement": "Log2 Fold change (vs control)", "setting": "[36]", "value": -0.65, "unit": "log2"},
      {"measurement": "Log2 Fold change (vs control)", "setting": "[37]", "value": 0.57, "unit": "log2"},
      {"measurement": "Log2 Fold change (vs control)", "setting": "[38]", "value": 0.63, "unit": "log2"},
      {"measurement": "Log2 Fold change (vs control)", "setting": "[39]", "value": -1.46, "unit": "log2"},
      {"measurement": "Log2 Fold change (vs control)", "setting": "[40]", "value": -0.1, "unit": "log2"},
      {"measurement": "Log2 Fold change (vs control)", "setting": "[41]", "value": 0.02, "unit": "log2"},
      {"measurement": "Log2 Fold change (vs control)", "setting": "[42]", "value": -1.29, "unit": "log2"},
      {"measurement": "Log2 Fold change (vs control)", "setting": "[43]", "value": 0.1, "unit": "log2"},
      {"measurement": "Log2 Fold change (vs control)", "setting": "[44]", "value": -0.62, "unit": "log2"},
      {"measurement": "Log2 Fold change (vs control)", "setting": "[45]", "value": -0.25, "unit": "log2"},
      {"measurement": "Log2 Fold change (vs control)", "setting": "[46]", "value": -0.45, "unit": "log2"},
      {"measurement": "Log2 Fold change (vs control)", "setting": "[47]", "value": -3, "unit": "log2"},
      {"measurement": "Log2 Fold change (vs control)", "setting": "[48]", "value": -0.57, "unit": "log2"},
      {"measurement": "Log2 Fold change (vs control)", "setting": "[49]", "value": -0.21, "unit": "log2"},
      {"measurement": "Log2 Fold change (vs control)", "setting": "[50]", "value": -0.26, "unit": "log2"},
      {"measurement": "Log2 Fold change (vs control)", "setting": "[51]", "value": -0.3, "unit": "log2"},
      {"measurement": "Log2 Fold change (vs control)", "setting": "[52]", "value": 0.38, "unit": "log2"},
      {"measurement": "Log2 Fold change (vs control)", "setting": "[53]", "value": -0.22, "unit": "log2"},
      {"measurement": "Log2 Fold change (vs control)", "setting": "[54]", "value": 0.05, "unit": "log2"},
      {"measurement": "Log2 Fold change (vs control)", "setting": "[55]", "value": -0.4, "unit": "log2"},
      {"measurement": "Log2 Fold change (vs control)", "setting": "[56]", "value": -0.17, "unit": "log2"},
      {"measurement": "Log2 Fold change (vs control)", "setting": "[57]", "value": -4.32, "unit": "log2"},
      {"measurement": "Log2 Fold change (vs control)", "setting": "[58]", "value": -0.3, "unit": "log2"}
    ]}
  ]
}
